Here are results for one substance from patent EP4810607A2.

Experiment [1] deals with mouse IL-11 (endogenous, produced by mouse fibroblasts in culture) (mouse) (UniProt P47873). Put plainly: cell-based or functional assay.
In experiment [2] the target is human IL-11 (native, secreted by human fibroblasts in culture) (human) (UniProt P20809). Put plainly: cell-based or functional assay.
UniProt P20809, sequence (P20809 22-199): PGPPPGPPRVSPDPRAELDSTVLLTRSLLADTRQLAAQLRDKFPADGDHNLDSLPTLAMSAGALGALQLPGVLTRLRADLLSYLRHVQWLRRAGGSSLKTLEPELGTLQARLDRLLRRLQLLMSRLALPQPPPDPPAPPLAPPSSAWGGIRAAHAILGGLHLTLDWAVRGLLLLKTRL

UniProt P47873, sequence (P47873 22-199 limits assumed): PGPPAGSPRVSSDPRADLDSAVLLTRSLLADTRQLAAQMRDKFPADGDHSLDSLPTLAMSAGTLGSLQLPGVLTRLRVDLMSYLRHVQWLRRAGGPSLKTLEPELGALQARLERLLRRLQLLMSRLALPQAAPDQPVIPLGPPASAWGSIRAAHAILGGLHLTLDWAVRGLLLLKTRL

On to “neutralising anti-human IL-11 monoclonal antibody (Monoclonal Mouse IgG2A; Clone #22626; Catalog No. MAB218; R&D Systems, MN, USA)”, for which, in experiment [1], the percentage of activated fibroblasts normalised to non-stimulated cultures, TGFβ1-stimulated mouse dermal fibroblasts (fold of non-stimulated) turned out to be 1.24; the percentage of activated fibroblasts relative to unstimulated cultures, TGFβ1-stimulated mouse atrial fibroblasts is 1.44 fold; the percentage of activated fibroblasts, TGFβ1-stimulated mouse dermal fibroblasts came to 39.4%. Besides, in experiment [2], the percentage of activated fibroblasts normalised to non-stimulated cultures, TGFβ1-stimulated human atrial fibroblasts (fold of non-stimulated) was 0.99; the percentage of activated fibroblasts relative to unstimulated cultures, TGFβ1-stimulated human atrial fibroblasts is 0.89 fold; the percentage of activated fibroblasts, TGFβ1-stimulated human atrial fibroblasts is 28.3%.
